From the supplement of paper PMC5998384 come the findings set out here.

The test system of data set [1] is HeLa Kyoto. In words: solubility change mitosis vs G1/S (difference of NP-40 vs SDS log2 ratios) (log2 ratio difference); higher = more soluble in mitosis.
Data set [2] has as its system HeLa Kyoto. The experiment in a line: melting temperature (median over replicates), in situ; higher = more thermally stable.
Data set [3] relates to HeLa Kyoto. In words: solubility in G1/S (NP-40 vs SDS abundance) (log2 ratio); higher = more soluble. The note with it: cell cycle stage: G1/S.
Data set [4] concerns HeLa Kyoto. The experiment in a line: thermal stability score vs G1/S (z-score of summed log2 fold changes over temperatures); higher = more thermally stable than in G1/S.
The mark [5] stands for this setting: cell cycle stage: early G1 (4.5 h after nocodazole release).
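Throughout, for melting temperature (median over replicates), in situ: HeLa Kyoto cells synchronized by double thymidine or nocodazole block, proteins quantified by TMT10plex mass spectrometry, three independent biological replicates.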
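Throughout, for solubility change mitosis vs G1/S (difference of NP-40 vs SDS log2 ratios): synchronized HeLa Kyoto cells (double thymidine block for G1/S, nocodazole release for mitosis), protein amounts in NP-40 versus SDS lysates quantified by mass spectrometry, three biological replicates.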
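Throughout, for solubility in G1/S (NP-40 vs SDS abundance): HeLa Kyoto cells arrested at G1/S by double thymidine block, proteins quantified by TMT10plex mass spectrometry in mild NP-40 versus SDS extracts, three biological replicates.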
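Throughout, for thermal stability score vs G1/S (z-score of summed log2 fold changes over temperatures): synchronized HeLa Kyoto cells, proteins quantified by TMT10plex mass spectrometry, three biological replicates, mitosis taken 0.5 h after nocodazole release, G1/S directly after double thymidine block.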

Take “MGTARWLALGSLFALAGLLEGRLVGEEEAGFGECDKFFYAGTPPAGLAADSHVKICQRAEGAERFATLYSTRDRIPVYSAFRAPRPAPGGAEQRWLVEPQIDDPNSNLEEAINEAEAITSVNSLGSKQALNTDYLDSDYQRGQLYPFSLSSDVQVATFTLTNSAPMTQSFQERWYVNLHSLMDRALTPQCGSGEDLYILTGTVPSDYRVKDKVAVPEFVWLAACCAVPGGGWAMGFVKHTRDSDIIEDVMVKDLQKLLPFNPQLFQNNCGETEQDTEKMKKILEVVNQIQDEERMVQSQKSSSPLSSTRSKRSTLLPPEASEGSSSFLGKLMGFIATPFIKLFQLIYYLVVAILKNIVYFLWCVTKQVINGIESCLYRLGSATISYFMAIGEELVSIPWKVLKVVAKVIRALLRILCCLLKAICRVLSIPVRVLVDVATFPVYTMGAIPIVCKDIALGLGGTVSLLFDTAFGTLGGLFQVVFSVCKRIGYKVTFDNSGEL [ENDOD1]”: in the data set on HeLa Kyoto [1], the “solubility change mitosis (log2)” value was -0.0882. For the same substance, the melting temperature came out at 57.6 °C with HeLa Kyoto [2] (cell cycle stage: G1/S) and 56.6 °C with HeLa Kyoto [2] (cell cycle stage: mitosis). The “solubility in G1/S (log2)” value in the data set on HeLa Kyoto [3] is -0.0976. Further, the values for the thermal stability score in the data set with HeLa Kyoto [4] (setting [5]) and with HeLa Kyoto [4] (cell cycle stage: mitosis) were 1.24 and -2.33, respectively.

As for “MGRTSKDKRDVYYRLAKENGWRARSAFKLLQLDKEFQLFQGVTRAVDLCAAPGSWSQVLSQKIGGQGSGHVVAVDLQAMAPLPGVVQIQGDITQLSTAKEIIQHFKGCPADLVVCDGAPDVTGLHDVDEYMQAQLLLAALNIATHVLKPGGCFVAKIFRGRDVTLLYSQLQVFFSSVLCAKPRSSRNSSIEAFAVCQGYDPPEGFIPDLSKPLLDHSYDPDFNQLDGPTRIIVPFVTCGDLSSYDSDRSYPLDLEGGSEYKYTPPTQPPISPPYQEACTLKRKGQLAKEIRPQDCPISRVDTFPQPLAAPQCHTLLAPEMEDNEMSCSP [FTSJ1]”, the “solubility change mitosis (log2)” value in the data set with HeLa Kyoto [1] came out at 0.07. The melting temperature is 51.4 °C in the data set on HeLa Kyoto [2] (cell cycle stage: G1/S) and 50.5 °C in the data set with HeLa Kyoto [2] (cell cycle stage: mitosis). In the data set with HeLa Kyoto [3], the “solubility in G1/S (log2)” value is 0.332. Moreover, the values for the thermal stability score with HeLa Kyoto [4] (setting [5]) and in the data set on HeLa Kyoto [4] (cell cycle stage: mitosis) were -0.919 and -0.299, respectively.

As for “MERREEQPGAAGAGAAPALDFTVENVEKALHQLYYDPNIENKNLAQKWLMQAQVSPQAWHFSWQLLQPDKVPEIQYFGASALHIKISRYWSDIPTDQYESLKAQLFTQITRFASGSKIVLTRLCVALASLALSMMPDAWPCAVADMVRLFQAEDSPVDGQGRCLALLELLTVLPEEFQTSRLPQYRKGLVRTSLAVECGAVFPLLEQLLQQPSSPSCVRQKVLKCFSSWVQLEVPLQDCEALIQAAFAALQDSELFDSSVEAIVNAISQPDAQRYVNTLLKLIPLVLGLQEQLRQAVQNGDMETSHGICRIAVALGENHSRALLDQVEHWQSFLALVNMIMFCTGIPGHYPVNETTSSLTLTFWYTLQDDILSFEAEKQAVYQQVYRPVYFQLVDVLLHKAQFPSDEEYGFWSSDEKEQFRIYRVDISDTLMYVYEMLGAELLSNLYDKLGRLLTSSEEPYSWQHTEALLYGFQSIAETIDVNYSDVVPGLIGLIPRISISNVQLADTVMFTIGALSEWLADHPVMINSVLPLVLHALGNPELSVSSVSTLKKICRECKYDLPPYAANIVAVSQDVLMKQIHKTSQCMWLMQALGFLLSALQVEEILKNLHSLISPYIQQLEKLAEEIPNPSNKLAIVHILGLLSNLFTTLDISHHEDDHEGPELRKLPVPQGPNPVVVVLQQVFQLIQKVLSKWLNDAQVVEAVCAIFEKSVKTLLDDFAPMVPQLCEMLGRMYSTIPQASALDLTRQLVHIFAHEPAHFPPIEALFLLVTSVTLTLFQQGPRDHPDIVDSFMQLLAQALKRKPDLFLCERLDVKAVFQCAVLALKFPEAPTVKASCGFFTELLPRCGEVESVGKVVQEDGRMLLIAVLEAIGGQASRSLMDCFADILFALNKHCFSLLSMWIKEALQPPGFPSARLSPEQKDTFSQQILRERVNKRRVKEMVKEFTLLCRGLHGTDYTADY [IPO13]”, the “solubility change mitosis (log2)” value in the data set with HeLa Kyoto [1] is -0.175. Further, the figures for the melting temperature with HeLa Kyoto [2] (cell cycle stage: G1/S) and in the data set on HeLa Kyoto [2] (cell cycle stage: mitosis) were 51.2 °C and 51 °C, respectively. In the data set with HeLa Kyoto [3], the “solubility in G1/S (log2)” value was -0.335. Further, the thermal stability score is -0.535 in the data set with HeLa Kyoto [4] (setting [5]) and -0.562 in the data set with HeLa Kyoto [4] (cell cycle stage: mitosis).

Consider CC2D1A, for which, in the data set on HeLa Kyoto [1], the “solubility change mitosis (log2)” value was -0.0691. Further, the melting temperature in the data set on HeLa Kyoto [2] (cell cycle stage: G1/S) was 49.7 °C; in the data set with HeLa Kyoto [2] (cell cycle stage: mitosis), 49.6 °C. Further, the “solubility in G1/S (log2)” value in the data set with HeLa Kyoto [3] came out at 0.298. Also, the thermal stability score with HeLa Kyoto [4] (setting [5]) is 0.931; with HeLa Kyoto [4] (cell cycle stage: mitosis) it was 0.615.

In the case of “MASSCAVQVKLELGHRAQVRKKPTVEGFTHDWMVFVRGPEHSNIQHFVEKVVFHLHESFPRPKRVCKDPPYKVEESGYAGFILPIEVYFKNKEEPRKVRFDYDLFLHLEGHPPVNHLRCEKLTFNNPTEDFRRKLLKAGGDPNRSIHTSSSSSSSSSSSSSSSSSSSSSSSSSSSSSSSSSSSSSSSSSSTSFSKPHKLMKEHKEKPSKDSREHKSAFKEPSRDHNKSSKESSKKPKENKPLKEEKIVPKMAFKEPKPMSKEPKPDSNLLTITSGQDKKAPSKRPPISDSEELSAKKRKKSSSEALFKSFSSAPPLILTCSADKKQIKDKSHVKMGKVKIESETSEKKKSTLPPFDDIVDPNDSDVEENISSKSDSEQPSPASSSSSSSSSFTPSQTRQQGPLRSIMKDLHSDDNEEESDEVEDNDNDSEMERPVNRGGSRSRRVSLSDGSDSESSSASSPLHHEPPPPLLKTNNNQILEVKSPIKQSKSDKQIKNGECDKAYLDELVELHRRLMTLRERHILQQIVNLIEETGHFHITNTTFDFDLCSLDKTTVRKLQSYLETSGTS [MLLT3]”, the “solubility change mitosis (log2)” value in the data set on HeLa Kyoto [1] amounted to 0.411. The results for the melting temperature with HeLa Kyoto [2] (cell cycle stage: G1/S) and in the data set with HeLa Kyoto [2] (cell cycle stage: mitosis) were 48.5 °C and 50.5 °C, respectively. Moreover, in the data set on HeLa Kyoto [3], the “solubility in G1/S (log2)” value is -0.355. Also, the thermal stability score in the data set with HeLa Kyoto [4] (setting [5]) is -0.0552; in the data set with HeLa Kyoto [4] (cell cycle stage: mitosis), 0.557.

Regarding GOLGA4, in the data set with HeLa Kyoto [1], the “solubility change mitosis (log2)” value is -0.133. In addition, the melting temperature was 48.5 °C with HeLa Kyoto [2] (cell cycle stage: G1/S) and 49.2 °C with HeLa Kyoto [2] (cell cycle stage: mitosis). Besides, in the data set with HeLa Kyoto [3], the “solubility in G1/S (log2)” value worked out at 0.348. The thermal stability score in the data set on HeLa Kyoto [4] (setting [5]) worked out at 0.946; with HeLa Kyoto [4] (cell cycle stage: mitosis), 2.53.

As to “MAAAAGDADDEPRSGHSSSEGECAVAPEPLTDAEGLFSFADFGSALGGGGAGLSGRASGGAQSPLRYLHVLWQQDAEPRDELRCKIPAGRLRRAARPHRRLGPTGKEVHALKRLRDSANANDVETVQQLLEDGADPCAADDKGRTALHFASCNGNDQIVQLLLDHGADPNQRDGLGNTPLHLAACTNHVPVITTLLRGGARVDALDRAGRTPLHLAKSKLNILQEGHAQCLEAVRLEVKQIIHMLREYLERLGQHEQRERLDDLCTRLQMTSTKEQVDEVTDLLASFTSLSLQMQSMEKR [ANKRD54]”, in the data set with HeLa Kyoto [1], the “solubility change mitosis (log2)” value is -0.169. The melting temperature in the data set on HeLa Kyoto [2] (cell cycle stage: G1/S) worked out at 51 °C. Also, the “solubility in G1/S (log2)” value in the data set with HeLa Kyoto [3] is 0.0925. Also, the thermal stability score worked out at 0.324 in the data set with HeLa Kyoto [4] (setting [5]) and 3.1 in the data set on HeLa Kyoto [4] (cell cycle stage: mitosis).

On to “MNIVVEFFVVTFKVLWAFVLAAARWLVRPKEKSVAGQVCLITGAGSGLGRLFALEFARRRALLVLWDINTQSNEETAGMVRHIYRDLEAADAAALQAGNGEEEILPHCNLQVFTYTCDVGKRENVYLTAERVRKEVGEVSVLVNNAGVVSGHHLLECPDELIERTMMVNCHAHFWTTKAFLPTMLEINHGHIVTVASSLGLFSTAGVEDYCASKFGVVGFHESLSHELKAAEKDGIKTTLVCPYLVDTGMFRGCRIRKEIEPFLPPLKPDYCVKQAMKAILTDQPMICTPRLMYIVTFMKSILPFEAVVCMYRFLGADKCMYPFIAQRKQATNNNEAKNGI [RDH10]”, for which, in the data set with HeLa Kyoto [1], the “solubility change mitosis (log2)” value is -0.104. Besides, the melting temperature was 53.4 °C in the data set on HeLa Kyoto [2] (cell cycle stage: G1/S) and 52.9 °C with HeLa Kyoto [2] (cell cycle stage: mitosis). In the data set with HeLa Kyoto [3], the “solubility in G1/S (log2)” value was -0.308. For the same substance, the thermal stability score in the data set with HeLa Kyoto [4] (setting [5]) was -3.18; in the data set on HeLa Kyoto [4] (cell cycle stage: mitosis) it was -3.77.
